{"source": "paper PMC4451130", "key": {"[1]": {"target": "Fibrinogen (FG), human plasma, plasminogen-depleted (human) (UniProt P02671)", "sequence (P02671 36-866, chain 1 of 3)": "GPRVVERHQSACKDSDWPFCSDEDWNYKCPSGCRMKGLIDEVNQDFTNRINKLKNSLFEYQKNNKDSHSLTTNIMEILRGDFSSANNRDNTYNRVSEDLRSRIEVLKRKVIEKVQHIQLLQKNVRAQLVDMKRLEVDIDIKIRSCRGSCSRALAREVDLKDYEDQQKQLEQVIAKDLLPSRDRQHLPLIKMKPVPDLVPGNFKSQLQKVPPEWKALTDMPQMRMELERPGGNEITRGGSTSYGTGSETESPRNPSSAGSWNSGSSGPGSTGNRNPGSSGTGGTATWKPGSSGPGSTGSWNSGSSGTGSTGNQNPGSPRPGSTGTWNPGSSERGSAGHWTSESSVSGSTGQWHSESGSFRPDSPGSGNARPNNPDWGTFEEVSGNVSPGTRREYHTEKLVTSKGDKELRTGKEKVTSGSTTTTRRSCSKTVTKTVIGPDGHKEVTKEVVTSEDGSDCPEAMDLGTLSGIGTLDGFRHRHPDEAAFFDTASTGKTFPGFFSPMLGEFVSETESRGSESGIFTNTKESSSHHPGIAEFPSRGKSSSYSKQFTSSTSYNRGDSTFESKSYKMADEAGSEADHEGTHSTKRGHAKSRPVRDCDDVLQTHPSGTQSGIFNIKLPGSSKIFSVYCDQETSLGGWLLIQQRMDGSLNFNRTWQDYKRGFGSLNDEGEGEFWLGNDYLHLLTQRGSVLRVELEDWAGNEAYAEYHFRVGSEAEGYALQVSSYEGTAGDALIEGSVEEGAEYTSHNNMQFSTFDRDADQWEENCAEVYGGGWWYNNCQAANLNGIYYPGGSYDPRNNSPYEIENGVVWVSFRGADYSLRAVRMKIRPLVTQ", "sequence (P02675 45-491, chain 2 of 3, further chain)": "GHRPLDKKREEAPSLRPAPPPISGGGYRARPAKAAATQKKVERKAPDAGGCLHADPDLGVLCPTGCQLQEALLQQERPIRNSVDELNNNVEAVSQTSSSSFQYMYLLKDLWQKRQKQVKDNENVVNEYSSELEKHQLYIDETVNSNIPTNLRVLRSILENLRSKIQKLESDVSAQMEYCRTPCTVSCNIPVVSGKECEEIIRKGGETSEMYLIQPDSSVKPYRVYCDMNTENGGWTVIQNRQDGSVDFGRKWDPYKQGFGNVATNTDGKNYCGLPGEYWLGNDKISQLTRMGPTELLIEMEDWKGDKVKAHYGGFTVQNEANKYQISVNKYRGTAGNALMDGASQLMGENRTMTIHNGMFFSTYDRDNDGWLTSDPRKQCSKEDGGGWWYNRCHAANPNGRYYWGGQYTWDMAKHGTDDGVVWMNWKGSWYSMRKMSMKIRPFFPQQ", "sequence (P02679 27-453, chain 3 of 3, further chain)": "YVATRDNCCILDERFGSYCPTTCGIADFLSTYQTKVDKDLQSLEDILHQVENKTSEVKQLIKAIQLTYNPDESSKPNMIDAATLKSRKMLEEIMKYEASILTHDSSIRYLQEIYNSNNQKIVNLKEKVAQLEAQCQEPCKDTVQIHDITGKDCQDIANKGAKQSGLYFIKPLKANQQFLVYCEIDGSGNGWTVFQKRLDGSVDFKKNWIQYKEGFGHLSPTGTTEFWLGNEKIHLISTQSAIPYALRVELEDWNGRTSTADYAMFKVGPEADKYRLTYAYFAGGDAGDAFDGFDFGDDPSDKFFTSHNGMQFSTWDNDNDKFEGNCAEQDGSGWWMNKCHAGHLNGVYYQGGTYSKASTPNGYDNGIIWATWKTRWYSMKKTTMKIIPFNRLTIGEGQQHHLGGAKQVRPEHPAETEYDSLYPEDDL", "assay": "ELISA"}, "[2]": {"target": "Glu-plasminogen (Plg) (human)", "sequence (P00747 20-810)": "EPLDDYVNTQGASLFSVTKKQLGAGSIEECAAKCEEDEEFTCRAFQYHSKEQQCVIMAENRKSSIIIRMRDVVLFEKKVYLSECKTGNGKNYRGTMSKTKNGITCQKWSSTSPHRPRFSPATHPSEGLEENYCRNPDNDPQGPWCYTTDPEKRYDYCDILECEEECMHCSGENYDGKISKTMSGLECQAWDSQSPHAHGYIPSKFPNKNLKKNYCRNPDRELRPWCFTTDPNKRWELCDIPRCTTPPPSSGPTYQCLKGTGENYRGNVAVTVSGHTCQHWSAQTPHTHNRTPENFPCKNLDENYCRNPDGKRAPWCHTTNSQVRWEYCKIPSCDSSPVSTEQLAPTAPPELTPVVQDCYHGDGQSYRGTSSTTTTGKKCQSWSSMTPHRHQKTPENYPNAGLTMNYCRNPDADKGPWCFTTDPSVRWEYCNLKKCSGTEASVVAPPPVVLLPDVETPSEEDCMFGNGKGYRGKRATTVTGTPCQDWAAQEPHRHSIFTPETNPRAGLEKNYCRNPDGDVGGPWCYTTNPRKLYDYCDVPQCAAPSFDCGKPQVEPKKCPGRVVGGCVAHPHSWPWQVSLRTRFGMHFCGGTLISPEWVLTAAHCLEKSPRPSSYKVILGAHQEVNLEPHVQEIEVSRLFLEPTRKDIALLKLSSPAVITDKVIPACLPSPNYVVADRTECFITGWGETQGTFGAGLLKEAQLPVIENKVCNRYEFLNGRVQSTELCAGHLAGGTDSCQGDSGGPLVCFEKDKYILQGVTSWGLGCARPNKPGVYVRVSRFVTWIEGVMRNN", "assay": "ELISA"}}}
{"substance": "Biotin-conjugated PTX3 (b-PTX3) (from UniProt P26022 18-381) (natural protein)", "values": [{"measurement": "Kd", "setting": "[1]", "value": 31.2, "unit": "nM"}, {"measurement": "Kd", "setting": "[2]", "value": 66.7, "unit": "nM"}]}
